For one substance, percent of POSH/JIP-1 complexes disrupted results are on record in US20160193292A1.

For this assay, the target named is JNK-interacting protein 1 (JIP-1) (UniProt Q9WVI9). Briefly: IP-FCM of lysates from OT-I T cells stimulated with OVA-Tet/α-CD28 in the presence of Tat-POSH vs Tat-cont.; competitor for POSH.
Sequence of JNK-interacting protein 1 (JIP-1) (Q9WVI9 whole entry): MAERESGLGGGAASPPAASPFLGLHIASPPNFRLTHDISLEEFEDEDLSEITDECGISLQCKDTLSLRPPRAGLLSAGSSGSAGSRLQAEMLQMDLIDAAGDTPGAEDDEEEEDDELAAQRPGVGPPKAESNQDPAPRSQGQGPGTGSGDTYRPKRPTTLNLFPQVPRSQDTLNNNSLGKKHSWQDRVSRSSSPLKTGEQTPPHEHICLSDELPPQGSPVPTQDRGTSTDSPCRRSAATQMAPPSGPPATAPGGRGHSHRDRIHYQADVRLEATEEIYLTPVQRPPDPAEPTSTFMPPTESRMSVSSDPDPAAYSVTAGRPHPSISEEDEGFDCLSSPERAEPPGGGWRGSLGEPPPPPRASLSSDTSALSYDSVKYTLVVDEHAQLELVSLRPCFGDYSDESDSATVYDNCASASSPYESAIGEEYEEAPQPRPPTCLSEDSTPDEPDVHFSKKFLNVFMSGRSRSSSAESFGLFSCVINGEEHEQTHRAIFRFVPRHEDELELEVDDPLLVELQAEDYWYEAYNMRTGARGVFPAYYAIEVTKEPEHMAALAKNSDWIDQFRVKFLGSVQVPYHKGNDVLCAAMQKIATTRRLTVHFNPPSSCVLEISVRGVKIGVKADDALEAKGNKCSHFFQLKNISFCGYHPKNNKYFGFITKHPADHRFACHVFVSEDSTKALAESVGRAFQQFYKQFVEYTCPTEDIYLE

As to “Tat-POSH SH3.3 (cell-permeable peptide containing the HIV Tat protein transduction domain fused to the SH3.3 of POSH)”, the percent of POSH/JIP-1 complexes disrupted was found to be 30%.
